This is an account of results in patent US20010044102.

The subject of the data set is c-Myc (pM21 expression), P01106-1. The data set can be described thus: cell_activity. The note with it: luciferase, NIH 3T3, SV40 minimal promoter.

c-Myc (pM21 expression), P01106-1, sequence (P01106 16-454): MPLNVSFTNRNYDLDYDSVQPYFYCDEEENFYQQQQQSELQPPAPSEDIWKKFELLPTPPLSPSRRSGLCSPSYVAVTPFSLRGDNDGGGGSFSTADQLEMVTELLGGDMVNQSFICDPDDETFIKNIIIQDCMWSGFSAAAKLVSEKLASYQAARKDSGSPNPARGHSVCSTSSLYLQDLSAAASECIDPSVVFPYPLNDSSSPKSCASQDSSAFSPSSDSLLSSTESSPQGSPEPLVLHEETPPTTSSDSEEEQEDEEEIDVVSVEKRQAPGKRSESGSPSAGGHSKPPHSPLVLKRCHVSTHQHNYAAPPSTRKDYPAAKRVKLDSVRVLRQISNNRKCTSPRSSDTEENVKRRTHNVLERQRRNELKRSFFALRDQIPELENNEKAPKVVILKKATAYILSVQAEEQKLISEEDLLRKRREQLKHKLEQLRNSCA

“cdc25A 2.5 kb KpnI/HindIII fragment (MB2+MB3) luciferase reporter”: the activity worked out at 5 fold.
